In patent publication US20240166745A1 (Eli Lilly, published 2024):
Numbering of substitutions follows the chain as printed.

B1: Antibody A (bispecific antibody, human IgG1, kappa, lambda)
heavy 1: not shown
light 1: DIVMTQTPLSLPVTPGEPASISCRSSQSLLDSAEGSTYLDWFLRKPGDSPQLLIYTLSYRASGVPDRFSGSGSGTDFTLKISRVEAEDVGVYYCMQRVEFPYTFGQGTKVEIKRTVAAPSVFIFPPSKEQLKSGTASVVCLLNNFYPREAKVQWKVDNALQSGNSQESVTEQDSKDSTYSLSSTLTLSKADYEKHKVYACEVTHQGLSSPVTKSFNRGEC
heavy 2: QVQLVQSGAEVKKPGASVKVSCKVSGYSLSKYDMSWVRKAPGKGLEWMGIIYTSGYTDYAQEFQGRVTMTEDTSTDTAYMELSSLRSEDTAVYYCATGNPYYTNGFNSWGQGTLVTVSSASTKGPSVFPLAPSSKSTSGGTAALGCLVKDYFPEPVTVSWNSGALTSGVATGPAVLQSSGLYSLSSVVTVPSSSLGTQTYICNVNHKPSNTKVDKRVEPKSCDKTHTCPPCPAPELLGGPSVFLFPPKPKDTLMISRTPEVTCVVVDVSHEDPEVKFNWYVDGVEVHNAKTKPREEQYNSTYRVVSVLTVLHQDWLNGKEYKCKVSNKALPAPIEKTISKAKGQPREPQVYTLPPSREEMTDNQVSLTCLVKGFYPSDIAVEWESNGQPENNYKTTPPVLMSDGSFFLASKLTVDKSRWQQGNVFSCSVMHEALHNHYTQKSLSLSPGK
light 2: RIQMTQSPSSLSASVGDRVTITCQASQSPNNLLAWYQDKPGKAPKLLIYGASDLPSGVPSRFSGSGSGTDFTLTISSLQPEDFATYYCQNNYYVGPVSYAFGGGTKVEIKGQPKAAPSVTLFPPSSEELQANKATLVCYISDFYPGAVTVAWKADSSPVKAGVETTTPSKQSNNKYAAWSYLSLTPEQWKSHRSYSCQVTHEGSTVEKTVAPTEC
notes: IgG-like bispecific with one LAG-3 arm and one PD-1 arm; also called human LAG-3/human PD-1 dual agonist bispecific antibody
B2: Antibody B (bispecific antibody, human IgG1, kappa, lambda)
heavy 1: not shown
light 1: B1 light 1
heavy 2: B1 heavy 2 with K324A
light 2: B1 light 2
notes: also called human LAG-3/human PD-1 dual agonist bispecific antibody

Experiments:
[1] = molecular target: T1, cell membrane-expressed human LAG-3/PD-1 (human, UniProt P18627 23-525; Q15116 25-288); test: flow cytometry, labeled antibody on anti-CD3 activated human PBMC, CD8 T cells, percent of cells bound (mean +/- SEM, n=3)
T1 construct: also called Human CD4
Procedure: Cells were incubated with 10-12 point, 3-fold serial dilutions of the respective labeled antibody (Invitrogen #S20026, Invitrogen #C20029), starting at 30 ug/mL, in PBS+2% FCS for 30 minutes at 4° C. and containing the following: CD4 eBioscience #12-0047-42 or Biolegend #344634; CD8 eBioscience #25-0088-42; CD3 eBioscience 56-0038-82 for human cells and BD #557917 for cyno cells; CD33 eBioscience 45-0338-42 for human cells; Live/Dead eBioscience #65-0865-18. After washing thoroughly, cells were processed on a BD Fortessa or Fortessa X20 cytometer, and data were analyzed with Flowjo software (BD Biosciences). Percent of cells bound by the respective antibody is quantified and graphed with Prism (Graphpad, San Diego, CA).

[2] = molecular target: PathHunter U2OS PD-1/LAG-3 dimerization cell line (human PD-1 aa 1-199-EA and human LAG-3 aa 1-477-PK) (human); test: cell-based or functional assay
Cynomolgus PD-1-ECD = molecular target: T2, Cynomolgus PD-1-ECD (cynomolgus, UniProt B0LAJ3 25-170); test: SPR (Biacore T200), antibody captured on PrismA chip, ECD as analyte, 25° C.
T2 construct: commercial protein; also called cynomolgus PD-1-ECD (Sino Biologicals, Cat #90311-C08H); not shown: C-terminal polyhistidine tag of the vendor product (Sino Biological 90311-C08H)
Procedure: (§1) A Biacore® T200 (Cytiva, Marlborough, MA) was used to measure the binding kinetics and affinities of the LAG-3 antibody to the LAG-3 soluble extracellular domain (ECD) and the bispecific antibody to soluble LAG-3-ECD and PD-1-ECD (human: Sino Biologicals, Cat #10377-H08H; cynomolgus: Sino Biologicals, Cat #90311-C08H) by surface plasmon resonance. Samples were diluted in HBS-EP+ (10 mM Hepes, 150 mM NaCl, 3 mM EDTA, 0.05% Tween-20, pH 7.6) (Teknova Cat #H8022) with 5 g/L of BSA (Jackson ImmunoResearch Cat #001-000-161) running buffer. PrismA Series S Sensor chip (Cat #29650263) is purchased from Cytiva.
(§2) Binding was evaluated using multi-cycle kinetics by an antibody capture method. Each cycle was performed at either 37° C. or 25° C. at a flow rate of 10 μL/min for antibody capture to the PrismA chip and 100 μL/min for analyte association (with 120 sec contact time) and dissociation (900 sec). Each cycle consisted of the following steps: injection of bispecific antibody at 1 μg/mL in HBS-EP+ targeting Rmax values of 125 RU (LAG-3 arm), 294 RU (PD-1 arm) and 63 RU (LAG-3 antibody) on flow cell, injection of analyte in HBS-EP+(concentration range of 62.5 nM to 0.25 nM by two-fold serial dilution for both human PD-1-ECD-His (SEQ ID NO: 40) and human LAG-3-His (SEQ ID NO: 42) followed by 900-second dissociation phase, and regeneration using 10 μL of 10 mM glycine hydrochloride, pH 1.5 over a 60-second contact time utilizing a 10 μL/min flow rate. All analyte concentrations were determined utilizing monomeric molecular weight (MW) values. Association rates (kₒₙ) and dissociation rates (koff) for LAG-3-ECD and PD-1-ECD were evaluated using double referencing by flow-cell one reference subtraction in addition to 0 nM blank subtraction and fit to “1:1 (Langmuir) binding” model in the BIAevaluation software version 4.1. The dissociation constant (KD) was calculated from the binding kinetics according to the relationship KD=Koff/Kₒₙ. Stoichiometry=[RUₘₐₓ/RUcaptured]/[MWanalyte/MWantibody] where MWAntibodyA is 150 kDa. Values are reported as mean±standard deviation.

Cynomolgus LAG-3-ECD = molecular target: T3, Cynomolgus LAG-3-ECD (cynomolgus); test: as above
T3 construct: as printed it starts with the N-terminal leader (MWEAQ...) and ends with a His tag; also called Cynomolgus LAG-3 ECD-His
T3 chain: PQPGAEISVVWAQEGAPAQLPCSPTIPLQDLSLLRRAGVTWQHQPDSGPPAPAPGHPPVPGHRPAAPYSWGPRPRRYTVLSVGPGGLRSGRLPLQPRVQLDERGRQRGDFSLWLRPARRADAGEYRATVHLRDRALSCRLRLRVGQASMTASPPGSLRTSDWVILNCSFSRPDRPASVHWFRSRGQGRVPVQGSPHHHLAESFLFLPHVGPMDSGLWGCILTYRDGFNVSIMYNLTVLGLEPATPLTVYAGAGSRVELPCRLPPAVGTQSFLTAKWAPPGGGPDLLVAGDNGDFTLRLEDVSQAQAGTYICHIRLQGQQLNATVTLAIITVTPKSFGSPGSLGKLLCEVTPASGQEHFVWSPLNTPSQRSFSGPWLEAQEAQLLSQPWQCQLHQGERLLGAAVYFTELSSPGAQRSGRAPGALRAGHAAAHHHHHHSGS
Procedure: as §1, §2

Human PD-1 ECD-His = molecular target: T4, Human PD-1 ECD-His (human, UniProt Q15116 25-167); test: as above
T4 construct: Soluble analyte in SPR; the entry includes the His tag
Procedure: as §1, §2

Human LAG-3 ECD-His = molecular target: T5, Human LAG-3 ECD-His (human, UniProt P18627 23-449); test: as above
T5 construct: Soluble analyte in SPR; the entry includes linker and His tag; also called human LAG-3-His
T5 sequence: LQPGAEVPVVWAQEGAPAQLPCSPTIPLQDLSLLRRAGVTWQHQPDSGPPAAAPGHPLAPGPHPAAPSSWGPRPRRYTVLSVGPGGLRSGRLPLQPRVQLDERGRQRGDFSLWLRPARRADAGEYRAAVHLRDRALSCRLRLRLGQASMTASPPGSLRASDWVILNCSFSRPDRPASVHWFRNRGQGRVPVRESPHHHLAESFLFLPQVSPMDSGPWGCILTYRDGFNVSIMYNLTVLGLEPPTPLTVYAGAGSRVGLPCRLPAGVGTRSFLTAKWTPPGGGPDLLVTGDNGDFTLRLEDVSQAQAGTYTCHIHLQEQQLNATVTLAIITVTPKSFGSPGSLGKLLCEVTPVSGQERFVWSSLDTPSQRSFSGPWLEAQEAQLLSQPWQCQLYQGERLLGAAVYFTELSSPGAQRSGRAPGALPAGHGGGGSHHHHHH
Procedure: as §1, §2

T4 sequence (Q15116 other isoform, or with tags, fused parts or gaps): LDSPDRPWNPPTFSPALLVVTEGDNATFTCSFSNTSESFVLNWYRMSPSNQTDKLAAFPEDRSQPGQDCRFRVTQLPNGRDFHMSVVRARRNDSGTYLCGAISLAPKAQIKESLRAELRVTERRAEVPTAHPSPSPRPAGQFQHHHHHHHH
T2 sequence (B0LAJ3 entry or part of it limits assumed): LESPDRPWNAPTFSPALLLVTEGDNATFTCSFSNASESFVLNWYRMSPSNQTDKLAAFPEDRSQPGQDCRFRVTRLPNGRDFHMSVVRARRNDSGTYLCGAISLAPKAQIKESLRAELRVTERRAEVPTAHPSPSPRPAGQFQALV
T1 sequence (Q15116 25-288 limits assumed, one chain of several): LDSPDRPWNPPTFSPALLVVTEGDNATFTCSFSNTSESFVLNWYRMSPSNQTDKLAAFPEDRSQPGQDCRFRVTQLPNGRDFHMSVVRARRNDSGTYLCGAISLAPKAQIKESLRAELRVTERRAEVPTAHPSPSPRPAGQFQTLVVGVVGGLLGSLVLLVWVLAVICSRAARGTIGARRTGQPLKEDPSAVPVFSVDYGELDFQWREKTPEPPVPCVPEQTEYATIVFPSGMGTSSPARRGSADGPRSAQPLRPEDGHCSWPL
Chain of PathHunter U2OS PD-1/LAG-3 dimerization cell line (human PD-1 aa 1-199-EA and human LAG-3 aa 1-477-PK) (human) (Q15116 1-199, chain 1 of 2): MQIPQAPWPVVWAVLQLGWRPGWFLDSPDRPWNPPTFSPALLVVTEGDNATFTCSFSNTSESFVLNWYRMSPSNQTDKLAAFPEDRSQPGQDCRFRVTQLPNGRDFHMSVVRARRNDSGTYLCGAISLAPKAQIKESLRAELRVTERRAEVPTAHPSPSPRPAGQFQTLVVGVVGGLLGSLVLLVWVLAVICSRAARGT
Chain of PathHunter U2OS PD-1/LAG-3 dimerization cell line (human PD-1 aa 1-199-EA and human LAG-3 aa 1-477-PK) (human) (P18627 1-477, chain 2 of 2, further chain): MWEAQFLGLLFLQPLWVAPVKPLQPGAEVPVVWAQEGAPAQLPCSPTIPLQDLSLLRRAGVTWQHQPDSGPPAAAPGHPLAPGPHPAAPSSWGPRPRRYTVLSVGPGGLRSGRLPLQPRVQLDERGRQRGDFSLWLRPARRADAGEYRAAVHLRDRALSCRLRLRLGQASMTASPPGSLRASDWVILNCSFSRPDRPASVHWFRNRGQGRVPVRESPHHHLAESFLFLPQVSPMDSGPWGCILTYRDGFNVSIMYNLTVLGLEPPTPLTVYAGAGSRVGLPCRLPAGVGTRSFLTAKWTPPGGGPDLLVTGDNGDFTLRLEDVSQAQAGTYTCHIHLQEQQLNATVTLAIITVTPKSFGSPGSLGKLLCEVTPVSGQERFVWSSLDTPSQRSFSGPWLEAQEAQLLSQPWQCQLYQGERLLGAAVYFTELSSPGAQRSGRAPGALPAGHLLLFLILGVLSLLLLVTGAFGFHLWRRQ

Binder | EC50 [1] | EC50 for induction of PD-1 and LAG-3 dimerization (enzyme fragment complementation, luminescence) [2] | Kd (Cynomolgus PD-1-ECD) | koff (Cynomolgus PD-1-ECD) | kon (Cynomolgus PD-1-ECD) | Kd (Cynomolgus LAG-3-ECD) | koff (Cynomolgus LAG-3-ECD) | kon (Cynomolgus LAG-3-ECD) | Kd (Human PD-1 ECD-His) | koff (Human PD-1 ECD-His) | Kd (Human LAG-3 ECD-His) | koff (Human LAG-3 ECD-His) | kon (Human LAG-3 ECD-His) | kon (Human PD-1 ECD-His)
B1 | 6.8 ng/mL | 2.97 nM | 1.6 nM | 0.002 s⁻¹ | 1.3e+06 M⁻¹ s⁻¹ | 0.031 nM | 0.0017 s⁻¹ | 5.4e+07 M⁻¹ s⁻¹ | 0.76 nM | 0.00057 s⁻¹ | 0.55 nM | 0.019 s⁻¹ | 3.4e+07 M⁻¹ s⁻¹ | –
B2 | 7.7 ng/mL | 2.47 nM | 1.1 nM | 0.0018 s⁻¹ | 1.7e+06 M⁻¹ s⁻¹ | 0.031 nM | 0.0017 s⁻¹ | 5.5e+07 M⁻¹ s⁻¹ | 0.76 nM | 0.00058 s⁻¹ | 0.53 nM | 0.023 s⁻¹ | 4.3e+07 M⁻¹ s⁻¹ | 770000 M⁻¹ s⁻¹
